Measured values published in patent US7351555B2, “Mouse cytokine receptor Zcytor16” (ZymoGenetics, Inc., priority 2001, dated 2008).

Experiments:
[1] = K-562 cytotoxicity assay (MTT); type: cell-based, human; conditions: human, K-562 cells, 100 uM
Method: The K-562 cell line (CRL-243, ATCC) has attained widespread use as a highly sensitive in vitro target for cytotoxicity assays. K-562 blasts are multipotential, hematopoietic malignant cells that spontaneously differentiate into recognizable progenitors of the erythrocytic, granulocytic and monocytic series (Lozzio, B B et al., Proc. Soc. Exp. Biol. Med. 166: 546-550, 1981).
K562 cells were plated at 5,000 cells/well in 96-well tissue culture clusters (Costar) in DMEM phenol-free growth medium (Life Technologies) supplemented with pyruvate and 10% serum (HyClone). Next day, human recombinant IL-TIF (Example 19), BSA control or retinoic acid (known to be cytotoxic to K562 cells) were added. Seventy-two hours later, the vital stain MTT (Sigma, St Louis, Mo.), a widely used indicator of mitochondrial activity and cell growth, was added to the cells at a final concentration of 0.5 mg/ml. […] is converted to a purple formazan derivative by mitochondrial dehydrogenases. Four hours later, converted MMP was solubilized by adding an equal volume of acidic, isopropanol (0.04N HCl in absolute isopropanol) to the wells. Absorbance was measured at 570 nm, with background subtraction at 650 nm. In this experimental setting, absorbance reflects cell viability. Results shown in Table 12 are expressed as % cytotoxicity.

IL-TIF [2] = target: T1, IL-TIF (Homo sapiens, UniProt Q9GZX6); assay: Inhibition of IL-TIF reporter activation in MES 13 cells by Zcytor16-Fc4; type: cell-based; conditions: for LU w/10 μg/ml zcytoR16: zcytoR16 10 μg/ml
T1 sequence (Q9GZX6 34-179): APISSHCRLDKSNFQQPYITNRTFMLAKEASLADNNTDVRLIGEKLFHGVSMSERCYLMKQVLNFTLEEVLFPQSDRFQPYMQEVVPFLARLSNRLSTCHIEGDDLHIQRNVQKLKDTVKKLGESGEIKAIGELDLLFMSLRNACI
Method: MES 13 cells (ATCC No. CRL-1927) were plated at 10,000 cells/well in 96-well tissue culture clusters (Costar) in DMEM growth medium (Life Technologies) supplemented with pyruvate and 10% serum (HyClone). Next day, the medium was switched to serum free DMEM medium by substituting 0.1% BSA (Fraction V; Sigma) for serum. This medium also contained the adenoviral construct KZ136 (below) that encodes a luciferase reporter mini-gene driven by SRE and STAT elements, at a 1000:1 multiplicity of infection (m.o.i.), i.e. 1000 adenoviral particles per cell. After allowing 24 h for the incorporation of the adenoviral construct in the cells, the media were changed and replaced with serum-free media. Human recombinant IL-TIF with or without a recombinant Zcytor16-Fc4 fusion was added at the indicated final concentration in the well (as described in Table 11, below). Dilutions of both the IL-TIF and Zcytor16-Fc4 were performed in serum-free medium. 0.1% BSA was added for a basal assay control. 4 h later, cells were lysed and luciferase activity, denoting activation of the reporter gene, was determined in the lysate using an Luciferase Assay System assay kit (Promega) and a Labsystems Luminoskan luminometer (Labsystems, Helsinki, Finland). Activity was expressed as luciferase units (LU) in the lysate.
The construction of the adenoviral KZ136 vector was as follows. The original KZ136 vector is disclosed in Poulsen, L K et al. J. Biol. Chem. 273:6228-6232, 1998. The CMV promoter/enhancer and SV40 pA sequences were removed from pACCMV.pLpA (T. C. Becker et al., […] 43:161-189, 1994.) and replaced with a linker containing Asp718/KpnI and HindIII sites (oligos ZC13252 (SEQ ID NO:26) and ZC13453 (SEQ ID NO:27)). The STAT/SRE driven luciferase reporter cassette was exised from vector KZ136 (Poulsen, L K et al., supra.).) as a Asp718/KpnI-HindIII fragment and inserted into the adapted pAC vector. Recombinant KZ136 Adenovirus was produced by transfection with JM17 Adenovirus into 293 cells as described in T. C. Becker et al. supra.). Plaque purified virus was amplified and used to infect cultured cells at 5-50 pfu/cell 12-48 hours before assay. Luciferase reporter assays were performed as described in 96 well microplates as per Poulsen, L K et al., supra.).

IL-TIF [3] = target: T1, IL-TIF; assay: COS cell secretion trap binding of Zcytor16sR/Fc4 to Class II cytokines; set-up: expressed in transfected cells; host or cells: COS cells; conditions: 1-3 μg/ml Zcytor16sR-Fc4; COS cells transfected with IL-TIF cDNA
Method: COS cell transfections were performed as follows: A mixture of 0.5 μg DNA and 5 μl lipofectamine (Gibco BRL) in 92 ul serum free DMEM media (55 mg sodium pyruvate, 146 mg L-glutamine, 5 mg transferrin, 2.5 mg insulin, 1 μg selenium and 5 mg fetuin in 500 ml DMEM) was incubated at room temperature for 30 minutes and then 400 μl serum free DMEM media added. A 500 μl mixture was added onto COS cells plated on 12-well tissue culture plate at 1.5×10^5 COS cells/well and previously incubated for 5 hours at 37° C. An additional 500 μl 20% FBS DMEM media (100 ml FBS, 55 mg sodium pyruvate and 146 mg L-glutamine in 500 ml DMEM) was added and the plates were incubated overnight.
The secretion trap was performed as follows: Media was rinsed off cells with PBS and fixed for 15 minutes with 1.8% Formaldehyde in PBS. Cells were then washed with TNT (0.1M Tris-HCl, 0.15M NaCl, and 0.05% Tween-20 in H2O). Cells were permeated with 0.1% Triton-X in PBS for 15 minutes and washed again with TNT. […]

IL-TIF [4] = target: T1, IL-TIF; assay: IL-TIF antagonist activity in BaF3/CRF2-4/zcytor11 Alamar Blue proliferation assay; type: cell-based; set-up: the coding region. for human IL-TIF, without its stop codon; made in house; host or cells: BHK 570 cells; conditions: Zcytor16 at 10 μg/ml; IL-TIF at all concentrations (0.06-50 ng/ml)
From the text: Purified human IL-TIF-CEE (Example 19) was used to test for the presence of proliferation activity as described below. Purified humsn Zcytor16-Fc4 (Example 11) was used to antagonize the proliferative response of the IL-TIF in this assay as described below.
BaF3/CRF2-4/zcytor11 cells were spun down and washed in the complete media, described in Example 7A above, but without mIL-3 (hereinafter referred to as “mIL-3 free media”). The cells were spun and washed 3 times to ensure the removal of the mIL-3. Cells were then counted in a hemacytometer. Cells were plated in a 96-well format at 5000 cells per well in a volume of 100 μl per well using the mIL-3 free media.
Proliferation of the BaF3/CRF2-4/zcytor11 cells was assessed using IL-TIF-CEE protein diluted with mIL-3 free media to 50, 10, 2, 1, 0.5, 0.25, 0.13, 0.06 ng/ml concentrations. 100 μl of the diluted protein was added to the BaF3/CRF2-4/zcytor11 cells. […] Alamar Blue gives a fluourometric readout based on number of live cells, and is thus a direct measurement of cell proliferation in comparison to a negative control. […] Plates were read on the Fmax™ plate reader (Molecular Devices Sunnyvale, Calif.) using the SoftMax™ Pro program, at wavelengths 544 (Excitation) and 590 (Emmission). […] The response, as measured, was approximately 15-fold over background at the high end of 50 ng/ml down to a 2-fold induction at the low end of 0.06 ng/ml. […]

With `CC1=C(/C=C/C(C)=C/C=C/C(C)=C/C(=O)O)C(C)(C)CCC1` [Retinoic acid, reference compound] the cytotoxicity at 72 h, 100 µM [1] was 62%.

B1: Zcytor16sR/Fc4: soluble human Zcytor16 polypeptide (residue 22 to 231 of SEQ ID NO:2) fused to a C-terminal Fc4 tag (protein)
chain: TQSTHESLKPQRVQFQSRNFHNILQWQPGRALTGNSSVYFVQYKIYGQRQWKNKEDCWGTQELSCDLTSETSDIQEPYYGRVRAASAGSYSEWSMTPRFTPWWETKIDPPVMNITQVNGSLLVILHAPNLPYRYQKEKNVSIEDYYELLYRVFIINNSLEKEQKVYEGAHRAVEIEALTPHSSYCVVAEIYQPMLDRRSQRSEERCVEIPEPRSSDKTHTCPPCPAPEAEGAPSVFLFPPKPKDTLMISRTPEVTCVVVDVSHEDPEVKFNWYVDGVEVHNAKTKPREEQYNSTYRVVSVLTVLHQDWLNGKEYKCKVSNKALPSSIEKTISKAKGQPREPQVYTLPPSRDELTKNQVSLTCLVKGFYPSDIAVEWESNGQPENNYKTTPPVLDSDGSFFLYSKLTVDKSRWQQGNVFSCSVMHEALHNHYTQKSLSLSPGK
With B1 the “LU w/10 μg/ml zcytoR16” value (IL-TIF [2]; IL-TIF 0 ng/ml (basal BSA control)) was 104 ± 2 LU, the “LU w/10 μg/ml zcytoR16” value (IL-TIF [2]; IL-TIF 0.03 ng/ml) was 104 ± 4 LU and the “LU w/10 μg/ml zcytoR16” value (IL-TIF [2]; IL-TIF 0.3 ng/ml) was 99 ± 6 LU. For the same molecule, the “LU w/10 μg/ml zcytoR16” value (IL-TIF [2]; IL-TIF 3 ng/ml) was 98 ± 15 LU, the “LU w/10 μg/ml zcytoR16” value (IL-TIF [2]; IL-TIF 30 ng/ml) was 110 ± 3 LU and the “LU w/10 μg/ml zcytoR16” value (IL-TIF [2]; IL-TIF 300 ng/ml) was 112 ± 30 LU. The “antagonism of the response to IL-TIF” value (IL-TIF [2]; even at the highest dose of IL-TIF used) was “effectively blocks the response to IL-TIF”, the “binding of Zcytor16sR/Fc4 to cytokine-transfected COS cells” value (IL-TIF [3]) was “positive binding” and the “response to IL-TIF in presence of Zcytor16” value (IL-TIF [4]) was “brought down to background”.
